# Experiment: soluble on expression in E. coli; label from the status in PepcDB or PDB records
row,Sequence,soluble on expression in E. coli
1,MKFIDEYRDPARARALLDRIRQVARHDWTIMEICGGQTHSILRNGIDQLLPPNVQLVHGPGCPVCVTPLETIERALAIAARPNTILTSFGDMLRVPGNSKDLFMARSEGADVRVVFSPLEALQIARDNPSKEVVFLGVGFETTAPANAMAVHQAAREGLTNFSELVSQVMVPPAMRAMLSSPGNRVQGFLAAGHVCAIMGYEEYEPVAAEFGVPIVPAGFEPVDLLDAILKTVELLEAGRSGVVNAYGRVVSREGNPEARRVMQEVFEVADRPWRGIGVIPASGLVLRPEYKRFDAEKRFDVGHIAPQESPLCRSGEVLQGHLKPSDCPAFGKECTPQTPFGATMVSSEGACAAYYRYHRNSNT,soluble
2,MGSDKIHHHHHHQTIDETAIIARAQAIATRINEFLATRERNLLAKILALGGVQQAEIFEIQVKARLHPADVERVLAVLNHPAITVTKTSERTQYDTYFIFANGERIRIREDHRTDPGARPQPKYTLTLMAEARRFDHPKAMMLSRARYTAPADHTVRFYREYFQPDRIEELEKQRRRWRILYRDHDFAINLDTLIGQADRGPFLEIKSRTWSRRDAERRAELISELLELIGISDDALVLQEYVELVA,not soluble
3,MSQSKGKKRNPGLKIPKEAFEQPQTSSTPPRDLDSKACISIGNQNFEVKADDLEPIMELGRGAYGVVEKMRHVPSGQIMAVKRIRATVNSQEQKRLLMDLDISMRTVDCPFTVTFYGALFREGDVWICMELMDTSLDKFYKQVIDKGQTIPEDILGKIAVSIVKALEHLHSKLSVIHRDVKPSNVLINALGQVKMCDFGISGYLVDSVAKTIDAGCKPYMAPERINPELNQKGYSVKSDIWSLGITMIELAILRFPYDSWGTPFQQLKQVVEEPSPQLPADKFSAEFVDFTSQCLKKNSKERPTYPELMQHPFFTLHESKGTDVASFVKLILGDLEHHHHHH,soluble
4,MSLQLKSEKARIILSGEPTLLIDKGKIDISALKSQRLNINDLMEELRLKNYFNVEDIEYAILETSGQISLIPKTHLTNATKEDLNLKVKQENVPITIILDGKVNTDNIKYLNKDADWLMKELKKNKIDSPKDVFLALIDSKGKFYYQKYNNEGHHHHHH,not soluble
5,STTEEESLSAAEEGYNVQRDYWRQAEESDGFDIENIKLPPGMHGRVMGLITYNCQLCYRYPFPVLVKLYAKFGLHRYNLIKGTSFELAALMKFNMLQNYMSSFYMTLLAHDPDPAASSSQKTFQVRVDEQQFGTLGINCSIARPKHEGDLLEVSTKTPFIPHFHGGALGDGIFKGELPDCLSDDALNALMEAVSKDELPEHVLDDALYARAGGIFQGELPDWPSDDALNDGKRFYMLKESEWQATDWISMYLELVITTTDRSITEPEVLSKLEIVKVAIETATKDEEPSNERLKAYRAHFYITFKGLAEPRAPRQVFEIGEHVERQAIVRRVMGHRGDLTLKGKLCGGQYIKRRSLALKSGEESPNCKKQTRVG,soluble
6,MSSRPPFGIVKPSKPTGNPSSGSSDLDSTAEPSPHERRMDSQRASSGSDVHGHPSLGSQSHNLTSAQSEGRNAHKDLHERHVHPSQGYQRHGSKAPAHGHPSSQGARRSQHELSNFPKLLANLMQDTKATASASCASNQDTLQPTASTMSDGEPEEDKVKLCGNRLEVGVTDNLAGTQRRKEQQQLQGAQAKNDIIYTLSTDNSILDIDHQPKREIAFTHSLLNISKIVNRMIPIRCSMFPGKSWKDPNNLKRPSIAKVHRTNHANELRTARFKANEKCYLLSVCQLISLKNPTFQGLSDSLNSPGDKKVAAEKHTCEDRTRRPTFPLDAFCSTPNEQYETMLLIAKSRTLSARMNVKMLHFPLGLLALEFDGIDSDMPNPDFHDNVLGYRDPHTTTPDSSSDHAAANLPPGRTRDYIPRKAKAPYINYVHSLSVMVEPLPSPPECCHLGSAEPVRPNFADIGAWSGSPTNPQSPSA,not soluble
7,MGSDKIHHHHHHMAGGSFMDDLRRGAGDLSVRASVREQDLNTYIMKVSCPARSGIVAAVSGYLARSGCNINDSSQFTDQETARFFMRLSFISEQGSGREALLDGFGSVAADFDMDYDIHDLSQKKKIVIMVSRFGHCLNDLLYRSRIGALPVEIVAVISNHLDYQKQVVNEDIPFHHIRVTPETKPEAEGAILQVVRDTGAELVVLARYMQVLSDQLCQEMSGRIINIHHSFLPSFKGANPYKQAYERGVRLIGATAHYVTADLDEGPIIEQDTIRVTHAQSGMDYVSLGRDVESQVLARAIHAHIHQRVFLNGNKTVVFPASPGEHVSERMG,not soluble
